This passage reports Kd results from patent publication US20050261170A1 (published 2005).

The assay concerns the target T1, onconase bearing a six His tag (Rana pipiens, UniProt P22069 1-104).
T1 construct: also called His-tagged onconase
T1 sequence: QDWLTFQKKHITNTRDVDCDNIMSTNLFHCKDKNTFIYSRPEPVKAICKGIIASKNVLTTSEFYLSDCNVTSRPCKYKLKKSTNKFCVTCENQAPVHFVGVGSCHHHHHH
In words: SPR (Biacore C1 chip): IMP 267 immobilised by a disulfide and loaded with NiCl2, flow cell without nickel as control, His-tagged onconase at 0-50 nM as analyte. The protocol:
IMP 267 was bound to a Biacore® C1 sensor chip first by dissolving 0.0040 g of IMP 267 in 690 μL of 0.01 M, pH 4.3 formate buffer. The chip was activated for coupling of the peptide via a disulfide linkage using pyridyldithioelthylamine (“PDEA”) as described by Biacore. The Biacore® C1 chip was activated with a 10 μL aliquot of the recommended 1-ethyl-3-(3-dimethylaminoprolyl) carbodiimide (“EDC”)/N-hydroxysuccinimide (“NHS”) mixture at 5 μL/min in flow cells 1 & 2. The recommended PDEA solution, 35 μL (0.0047 g PDEA in 0.1 M, pH 8.5 Borate buffer) was added to the chip at flow cells 1 & 2. The peptide, 35 μL was added to flow cells 1 & 2 and the chip was quenched with an aliquot of cysteine (made from 0.0026 g cys, 0.0268 g NaCl, and 433 μL 0.1 M, pH 4.3 formate buffer) into cells 1 & 2. The chip was activated by adding nickel to only one flow cell using the other flow cell, without nickel, as the control. The activation was done at 40 μL/min using 100 μL of a 500 μM NiCl₂ solution in NTA buffer. A kinetics experiment was performed using the following concentrations of onconase bearing a six His tag (50 nM, 25 nM, 10 nM, 5 nM, 1 nM and 0 nM). […] The affinity of His-tagged onconase is accessed similarly.
(In SPR one partner is held on a chip, and binding of the other changes the refractive index at the surface.)

Primed or numbered codes have the meaning given here. NTA′ = nitrilotriacetic acid residue (Asp with its nitrogen carboxymethylated)

B1: IMP 267 (peptide)
peptide: Ac-CK(NTA′)K(NTA′)K(NTA′)-NH2
modifications: also: Cys thiol coupled to Biacore C1 chip by disulfide (PDEA), loaded with Ni2+
notes: Synthetic tri-NTA peptide; also called peptide that includes nitrilotriacetic acid residues
B1 came in with a Kd of 1.15 nM.

As a reminder, the Kd is the concentration at which binding is half-saturated. Read a low Kd as higher affinity.
